In patent US20200264182A1, “METHOD FOR DETECTING PROSTATE CANCER” (J-OIL MILLS, INC., priority 2017, published 2020):

Assays:
[1] = FAC binding constant (Table 5 entry); conditions: Table 5: sugar chain having no fucose; at 25° C.
Procedure: (§1) Details of the FAC method are described in Patent Document 2 filed by some of the present applicants, for example.
(§2) Binding constants (at 25° C.) of PhoSL, SRL, NSL and LSL belonging to the fucose α1→6 specific lectin for various sugar chains are shown in Tables 2 to 5.

serum fucosylated PSA = experiment: Sandwich ELISA, anti-PSA antibody and biotin-labeled lectin; type: binding, human
Procedure: The anti-PSA antibody from which sugar chains had been removed was diluted to 5 μg/mL with PBS. 25 μL of this diluted solution was added to each well of an ELISA plate and allowed to stand at 37° C. for 12 hours, and then the additive solution was discarded.
150 μL of PBS containing 0.05% Tween 20 (product name: polyoxyethylene sorbitan monolaurate, from Nacalai Tesque, Inc.) was added to each well, and then the additive solution was discarded. This manipulation was repeated three times in total.
25 μL of 1% BSA/PBS was added to each well and allowed to stand at 37° C. for 1 hour, and then the additive solution was discarded.
150 μL of PBS containing 0.05% Tween 20 was added to each well, and then the additive solution was discarded. This manipulation was repeated three times in total.
To graph a calibration curve, 25 μL of the fucosylated PSA reference standard diluted with 1% BSA/PBS to a concentration of 0 to 200 ng/mL was added to each well and allowed to stand at room temperature for 1 hour, and then the additive solution was discarded. In addition, to detect the fucosylated PSA in the serum of the subject by the lectin, 25 μL of serum of “Healthy 1” and “Prostate cancer 4” 2-fold diluted with PBS was added to each well and allowed to stand at room temperature for 1 hour, and then the additive solution was discarded.
In Reference Example 1, 25 μL of a biotin-labeled PhoSL diluted to 0.1 μg/mL with 0.1% BSA/PBS (pH 7.4) was added to each well and allowed to stand at 4° C. for 30 minutes, and then the additive solution was discarded. In Example 1, 25 μL of a biotin-labeled PhoSL diluted to 0.1 μg/mL with 0.1% BSA/10-fold diluted PBS+glycine-NaOH (pH 9.6) was added to each well and allowed to stand at 4° C. for 30 minutes, and then the additive solution was discarded.
25 μL of a horseradish peroxidase (HRP)-labeled streptavidin solution (from Vector Laboratories, Inc., concentration: 0.4 μg/mL, in 1% BSA/PBS) was added to each well and allowed to stand at room temperature for 30 minutes, and then the additive solution was discarded.
25 μL of chromogenic substrate for HRP (product name: TMB, from Kirkegaard & Perry Laboratories, Inc.) was added to each well and allowed to stand at room temperature for 10 minutes.
25 μL of 1M phosphoric acid was added to terminate the reaction.
Absorbance (Ab) at 450 nm and 630 nm was measured using a plate reader, and a measurement (Ab450-630) was obtained.
A calibration curve was graphed by plotting signals (reaction values, Ab450-630) of the fucosylated PSA reference standard with the biotin-labeled PhoSL. A Signal (Ab450-630) of the biotin-labeled PhoSL corresponding to the fucosylated PSA concentration of 10 ng/mL was defined as 10 U/mL.
The signals of biotin-labeled PhoSL (Ab450-630) for the serum fucosylated PSA in the subject samples A were assigned to the calibration curve to calculate reaction values (unit: U/mL).
The PhoSL reaction values for the subject samples A were measured by the same operation as in Example 1. From the PhoSL reaction values, an average value and a median value were determined. Furthermore, a standard cutoff value (89.7 U/mL) was used to determine a detection rate (positive rate) of the prostate cancer patients, and a false detection rate (false positive rate) of the healthy persons.
Comparative Example 2 in Table 9 indicates results of detecting the serum fucosylated PSA using AAL (AAL reaction values) in the subject samples A. Specifically, in Reference Example 1, AAL reaction values were measured in the same manner as in Reference Example 1 except that the biotin-labeled PhoSL was replaced with a biotin-labeled AAL. A standard cut-off value for the AAL reaction values was 894.8 U/mL. As in Example 2, an average value, a median value, a positive rate and a false positive rate were determined from the AAL reaction values.

[2] = Binding to sugar chains, summary of Tables 2 to 5; conditions: sugar chains No. 015, 201 to 203, and 401 to 418
Procedure: as §1, §2
The AAL and AOL bind to the fucose α1→6 sugar chains (sugar chains No. 015, 201 to 203, and 401 to 418), as well as to the glycolipid-type sugar chain excluding the fucose α1→6 (sugar chains No. 718, 722, 723, 727, 909, 910 and 933). The LCL and PSL bind to the fucose α1→6 sugar chain, as well as to sugar chain excluding the α1→6 fucose (sugar chains No. 003, and 005 to 014).
Furthermore, the binding constant of the fucose α1→6 specific lectin is not decreased even if a sialic acid is added to the fucose α1→6 sugar chain (sugar chains No. 601 and 602). In addition, the fucose α1→6 specific lectin also strongly binds to the triple-strand (sugar chains No. 407 to 413) and the four-strand (sugar chains No. 418) of the fucose uα1→6 sugar chain.

[3] = subject samples A, 7 healthy persons, pH 7.4
[4] = subject samples A, 9 patients, pH 7.4

B1: AAL: Aleuria aurantia lectin, has affinity for fucose α1→6 but is not specific; from J-OIL MILLS, Inc. (protein)
chain: PTEFLYTSKIAAISWAATGGRQQRVYFQDLNGKIREAQRGGDNPWTGGSSQNVIGEAKLFSPLAAVTWKSAQGIQIRVYCVNKDNILSEFVYDGSKWITGQLGSVGVKVGSNSKLAALQWGGSESAPPNIRVYYQKSNGSGSSIHEYVWSGKWTAGASFGSTVPGTGIGATAIGPGRLRIYYQATDNKIREHCWDSNSWYVGGFSASASAGVSIAAISWGSTPNIRVYWQKGREELYEAAYGGSWNTPGQIKDASRPTPSLPDTFIAANSSGNIDISVFFQASGVSLQQWQWISGKGWSIGAVVPTGTPAGW
- Binding constant for sugar chain No. 728 [1]: <1000 M⁻¹
- lectin reaction value B of Healthy 1 (serum fucosylated PSA; serum of Healthy 1, pH in lectin reaction 7.4): 1099.6 U/mL
- lectin reaction value of Healthy 2 (serum fucosylated PSA; serum of Healthy 2, pH in lectin reaction 7.4): 854.6 U/mL
- lectin reaction value of Healthy 3 (serum fucosylated PSA; serum of Healthy 3, pH in lectin reaction 7.4): 1062.7 U/mL
- lectin reaction value of Healthy 4 (serum fucosylated PSA; serum of Healthy 4, pH in lectin reaction 7.4): 115.0 U/mL
- lectin reaction value of Healthy 5 (serum fucosylated PSA; serum of Healthy 5, pH in lectin reaction 7.4): 32.3 U/mL
- lectin reaction value of Healthy 6 (serum fucosylated PSA; serum of Healthy 6, pH in lectin reaction 7.4): 1193.1 U/mL
- lectin reaction value of Healthy 7 (serum fucosylated PSA; serum of Healthy 7, pH in lectin reaction 7.4): 1028.8 U/mL
- lectin reaction value of Prostate cancer 1 (serum fucosylated PSA; serum of Prostate cancer 1, GS 4 (2 + 2), pH in lectin reaction 7.4): 831.2 U/mL
- lectin reaction value of Prostate cancer 2 (serum fucosylated PSA; serum of Prostate cancer 2, GS 5 (2 + 3), pH in lectin reaction 7.4): 1032.3 U/mL
- lectin reaction value of Prostate cancer 3 (serum fucosylated PSA; serum of Prostate cancer 3, GS 6 (3 + 3), pH in lectin reaction 7.4): 1152.7 U/mL
- lectin reaction value A of Prostate cancer 4 (serum fucosylated PSA; serum of Prostate cancer 4, GS 6 (3 + 3), pH in lectin reaction 7.4): 926.5 U/mL
- lectin reaction value of Prostate cancer 5 (serum fucosylated PSA; serum of Prostate cancer 5, GS 7 (3 + 4), pH in lectin reaction 7.4): 1025.0 U/mL
- lectin reaction value of Prostate cancer 6 (serum fucosylated PSA; serum of Prostate cancer 6, GS 7 (3 + 4), pH in lectin reaction 7.4): 961.5 U/mL
- lectin reaction value of Prostate cancer 7 (serum fucosylated PSA; serum of Prostate cancer 7, GS 8 (3 + 5), pH in lectin reaction 7.4): 1211.9 U/mL
- lectin reaction value of Prostate cancer 8 (serum fucosylated PSA; serum of Prostate cancer 8, GS 8 (4 + 4), pH in lectin reaction 7.4): 1010.0 U/mL
- lectin reaction value of Prostate cancer 9 (serum fucosylated PSA; serum of Prostate cancer 9, GS 8 (4 + 4), pH in lectin reaction 7.4): 988.1 U/mL
- reaction value, Healthy person group, Average value (serum fucosylated PSA; [3]): 769.4 U/mL
- reaction value, Healthy person group, Median value (serum fucosylated PSA; [3]): 1028.8 U/mL
- reaction value, Prostate cancer patient group, Average value (serum fucosylated PSA; [4]): 1015.5 U/mL
- reaction value, Prostate cancer patient group, Median value (serum fucosylated PSA; [4]): 1010.0 U/mL
- reaction value, GS6, Mean value (serum fucosylated PSA; subject samples A, n 2, pH 7.4): 1039.6 U/mL
- reaction value, GS6, Median value (serum fucosylated PSA; subject samples A, n 2, pH 7.4): 1039.6 U/mL
- reaction value, GS7, Mean value (serum fucosylated PSA; subject samples A, n 2, pH 7.4): 993.3 U/mL
- reaction value, GS7, Median value (serum fucosylated PSA; subject samples A, n 2, pH 7.4): 993.3 U/mL
- reaction value, Negative (GS5 or less), Mean value (serum fucosylated PSA; subject samples A, n 2, pH 7.4): 931.8 U/mL
- reaction value, Negative (GS5 or less), Median value (serum fucosylated PSA; subject samples A, n 2, pH 7.4): 931.8 U/mL
- reaction value, GS8 or more, Mean value (serum fucosylated PSA; subject samples A, n 3, pH 7.4): 1070.0 U/mL
- reaction value, GS8 or more, Median value (serum fucosylated PSA; subject samples A, n 3, pH 7.4): 1010.0 U/mL
- binding to the fucose α1→6 sugar chains (in words) [2]: bind
